Results: PMC6592559
Ends that are not written are not given here.

Molecular target: T1, PDF receptor (PDFR), endogenous in the insulin producing cells (Drosophila melanogaster (endogenous in fly brain)) (UniProt Q9W4Y2)
T1 sequence: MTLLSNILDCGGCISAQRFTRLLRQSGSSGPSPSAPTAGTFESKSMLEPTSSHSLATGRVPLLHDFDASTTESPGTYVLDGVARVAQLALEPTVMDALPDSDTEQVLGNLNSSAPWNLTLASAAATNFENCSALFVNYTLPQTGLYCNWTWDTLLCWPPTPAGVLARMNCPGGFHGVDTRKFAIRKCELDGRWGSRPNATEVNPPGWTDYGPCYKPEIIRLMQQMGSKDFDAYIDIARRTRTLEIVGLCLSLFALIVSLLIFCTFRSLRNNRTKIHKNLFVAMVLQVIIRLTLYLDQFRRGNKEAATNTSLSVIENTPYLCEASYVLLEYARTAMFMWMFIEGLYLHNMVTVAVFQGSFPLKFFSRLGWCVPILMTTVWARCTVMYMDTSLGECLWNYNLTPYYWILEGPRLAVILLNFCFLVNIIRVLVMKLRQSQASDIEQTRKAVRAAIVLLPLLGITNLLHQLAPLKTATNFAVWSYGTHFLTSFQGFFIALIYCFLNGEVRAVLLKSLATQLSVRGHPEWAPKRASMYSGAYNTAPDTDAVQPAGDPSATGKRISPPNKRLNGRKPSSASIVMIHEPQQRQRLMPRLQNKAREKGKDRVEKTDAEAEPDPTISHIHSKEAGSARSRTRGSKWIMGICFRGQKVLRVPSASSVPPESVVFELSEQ

- cAMP FRET signal (Epac1camps) in the IPCs of dissected brains, 10 uM PDF bath-applied, 100-1000 s, against the HL3 negative control; no increase in the PDFR-null han mutant: 10%
Binder: NSELINSLLSLPKNMNDA-NH2 [Pigment Dispersing Factor (PDF), synthetic peptide]
